Fewer inactive variants are shown than the library holds.

The subject of one data set is biotinyl-Met-oxazolone. Kind of data set: self-aminoacylation, catalytic enhancement (BMO) (fold over background); higher = more active; k-Seq, kA / k0A0; sequences stand for … in GGGAAUGGAUCCACAUCUACGAAUUC…UUCACUGCAGACUUGACGAAGCUG
The method in brief: (§1)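 The uncatalyzed rate is the low-activity peak of a bimodal Gaussian fit, and catalytic enhancement is median kA divided by it. The kA values came from pseudo-first-order fits, with 1000 bootstraps, of per-sequence fraction reacted measured by streptavidin capture, triplicate qPCR and Illumina sequencing. Mutagenized RNA pools with a 21-nt variable region (0.43 μM) were reacted with each biotinyl-aminoacyl-oxazolone at 2–1250 μM in 50 μL HEPES/NaCl/KCl/MgCl2/CaCl2 buffer with 5% acetonitrile, pH 6.9–7.0, for 90 minutes at room temperature.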

A further data set relates to biotinyl-Leu-oxazolone. Kind of data set: self-aminoacylation, catalytic enhancement (BLO) (fold over background); higher = more active; k-Seq, kA / k0A0; sequences stand for … in GGGAAUGGAUCCACAUCUACGAAUUC…UUCACUGCAGACUUGACGAAGCUG
The method in brief:
as §1

The subject of a further data set is biotinyl-Phe-oxazolone. Description: self-aminoacylation, catalytic enhancement (BFO) (fold over background); higher = more active; k-Seq, kA / k0A0; sequences stand for … in GGGAAUGGAUCCACAUCUACGAAUUC…UUCACUGCAGACUUGACGAAGCUG
Put shortly:
as §1

Another data set deals with biotinyl-Trp-oxazolone. Description: self-aminoacylation, catalytic enhancement (BWO) (fold over background); higher = more active; k-Seq, kA / k0A0; sequences stand for … in GGGAAUGGAUCCACAUCUACGAAUUC…UUCACUGCAGACUUGACGAAGCUG
The method in brief: as §1

A further data set deals with biotinyl-Ile-oxazolone. Kind of data set: self-aminoacylation, catalytic enhancement (BIO) (fold over background); higher = more active; k-Seq, kA / k0A0; sequences stand for … in GGGAAUGGAUCCACAUCUACGAAUUC…UUCACUGCAGACUUGACGAAGCUG
The method in brief:
as §1

For another data set, the system named is biotinyl-Val-oxazolone. Description: self-aminoacylation, catalytic enhancement (BVO) (fold over background); higher = more active; k-Seq, kA / k0A0; sequences stand for … in GGGAAUGGAUCCACAUCUACGAAUUC…UUCACUGCAGACUUGACGAAGCUG
Put shortly:
as §1

Regarding “CUACUUCAAAUAAACGGUCUG [Fam1A.1 aminoacylation ribozyme variant]”, the self-aminoacylation with biotinyl-Met-oxazolone came to 0.537; with biotinyl-Leu-oxazolone, 0.71; in the data set on biotinyl-Phe-oxazolone, 0.881; with biotinyl-Trp-oxazolone it was 0.692; in the data set on biotinyl-Ile-oxazolone, 0.719; in the data set on biotinyl-Val-oxazolone, 0.777.

As to “CUACUUCAAAUAAGCGGUCUG [Fam1A.1 aminoacylation ribozyme variant]”, the self-aminoacylation amounted to 0.797 with biotinyl-Met-oxazolone; 0.824 in the data set on biotinyl-Leu-oxazolone; 0.945 with biotinyl-Phe-oxazolone; 0.575 in the data set with biotinyl-Trp-oxazolone; 0.958 with biotinyl-Ile-oxazolone; 0.799 in the data set on biotinyl-Val-oxazolone.

For “CUACUUCAAAUAAUCGCUCUG [Fam1A.1 aminoacylation ribozyme variant]”, the self-aminoacylation turned out to be 0.562 in the data set with biotinyl-Met-oxazolone; 0.583 with biotinyl-Leu-oxazolone; 2.37 in the data set with biotinyl-Phe-oxazolone; 1.23 in the data set with biotinyl-Trp-oxazolone; 0.6 in the data set with biotinyl-Ile-oxazolone; 0.637 in the data set on biotinyl-Val-oxazolone.

Turning to “CUACUUCAAAUAAUCGGGCUG [Fam1A.1 aminoacylation ribozyme variant]”, the self-aminoacylation with biotinyl-Met-oxazolone amounted to 0.607; in the data set on biotinyl-Leu-oxazolone, 0.965; in the data set with biotinyl-Phe-oxazolone, 4.76; in the data set with biotinyl-Trp-oxazolone, 3.35; in the data set with biotinyl-Ile-oxazolone, 0.911; with biotinyl-Val-oxazolone, 0.85.

Turning to “CUACUUCAAAUAAUCGGUCAG [Fam1A.1 aminoacylation ribozyme variant]”, the self-aminoacylation was 0.675 in the data set with biotinyl-Met-oxazolone; 0.708 in the data set with biotinyl-Leu-oxazolone; 6.75 with biotinyl-Phe-oxazolone; 3.24 in the data set on biotinyl-Trp-oxazolone; 0.755 in the data set on biotinyl-Ile-oxazolone; 0.83 with biotinyl-Val-oxazolone.

Consider “CUACUUCAAAUAAUCGGUGUG [Fam1A.1 aminoacylation ribozyme variant]”, for which the self-aminoacylation in the data set with biotinyl-Met-oxazolone is 0.983; with biotinyl-Leu-oxazolone it was 1; with biotinyl-Phe-oxazolone, 3.23; in the data set on biotinyl-Trp-oxazolone it was 2.4; in the data set on biotinyl-Ile-oxazolone, 0.826; with biotinyl-Val-oxazolone, 0.826.

Take “CUACUUCAAAUAAUGGGUCUG [Fam1A.1 aminoacylation ribozyme variant]”: the self-aminoacylation turned out to be 0.956 with biotinyl-Met-oxazolone; 1.01 in the data set on biotinyl-Leu-oxazolone; 0.624 with biotinyl-Phe-oxazolone; 0.583 in the data set on biotinyl-Trp-oxazolone; 0.875 in the data set with biotinyl-Ile-oxazolone; 0.814 in the data set with biotinyl-Val-oxazolone.

For the sequence “CUACUUCAAAUAAUUGGUCUG [Fam1A.1 aminoacylation ribozyme variant]”, the self-aminoacylation with biotinyl-Met-oxazolone is 0.953; with biotinyl-Leu-oxazolone, 0.869; with biotinyl-Phe-oxazolone, 1.19; in the data set on biotinyl-Trp-oxazolone, 0.637; in the data set with biotinyl-Ile-oxazolone it was 0.844; in the data set with biotinyl-Val-oxazolone it was 0.802.

Take “CUACUUCAAAUACUCGGUCUG [Fam1A.1 aminoacylation ribozyme variant]”: the self-aminoacylation in the data set on biotinyl-Met-oxazolone amounted to 0.972; in the data set on biotinyl-Leu-oxazolone, 0.807; in the data set with biotinyl-Phe-oxazolone, 0.622; in the data set on biotinyl-Trp-oxazolone, 0.71; with biotinyl-Ile-oxazolone it was 0.832; in the data set on biotinyl-Val-oxazolone, 0.84.

As for “CUACUUCAACCAAACGGUCUG [Fam1A.1 aminoacylation ribozyme variant]”, the self-aminoacylation in the data set with biotinyl-Met-oxazolone worked out at 0.704; in the data set on biotinyl-Leu-oxazolone it was 0.871; with biotinyl-Phe-oxazolone, 0.71; in the data set on biotinyl-Trp-oxazolone it was 0.55; in the data set on biotinyl-Ile-oxazolone it was 0.745; with biotinyl-Val-oxazolone, 0.86.

Turning to “CUACUUCAACCAUUCGGUCUG [Fam1A.1 aminoacylation ribozyme variant]”, the self-aminoacylation with biotinyl-Met-oxazolone came out at 1.17; with biotinyl-Leu-oxazolone it was 1.19; in the data set with biotinyl-Phe-oxazolone it was 0.891; in the data set with biotinyl-Trp-oxazolone it was 1.52; in the data set on biotinyl-Ile-oxazolone, 1.21; in the data set on biotinyl-Val-oxazolone, 1.26.

Regarding “CUACUUCAACCCAUCGGUCUG [Fam1A.1 aminoacylation ribozyme variant]”, the self-aminoacylation in the data set on biotinyl-Met-oxazolone was found to be 0.722; in the data set on biotinyl-Leu-oxazolone it was 0.943; with biotinyl-Phe-oxazolone, 0.647; in the data set with biotinyl-Trp-oxazolone, 0.838; in the data set with biotinyl-Ile-oxazolone, 0.983; in the data set with biotinyl-Val-oxazolone it was 0.983.

Regarding “CUACUUCAAGCAACCGGUCUG [Fam1A.1 aminoacylation ribozyme variant]”, the self-aminoacylation worked out at 0.943 with biotinyl-Met-oxazolone; 0.947 in the data set on biotinyl-Leu-oxazolone; 1.06 in the data set with biotinyl-Phe-oxazolone; 0.799 with biotinyl-Trp-oxazolone; 0.883 in the data set with biotinyl-Ile-oxazolone; 0.837 with biotinyl-Val-oxazolone.

Turning to “CUACUUCAAGCAAUCAGUCUG [Fam1A.1 aminoacylation ribozyme variant]”, the self-aminoacylation came to 0.615 in the data set with biotinyl-Met-oxazolone; 0.698 with biotinyl-Leu-oxazolone; 5.21 in the data set with biotinyl-Phe-oxazolone; 2.25 with biotinyl-Trp-oxazolone; 0.772 in the data set on biotinyl-Ile-oxazolone; 0.786 in the data set with biotinyl-Val-oxazolone.

As to “CUACUUCAAGCAAUCGCUCUG [Fam1A.1 aminoacylation ribozyme variant]”, the self-aminoacylation in the data set on biotinyl-Met-oxazolone was 1.07; with biotinyl-Leu-oxazolone it was 1.28; in the data set on biotinyl-Phe-oxazolone, 1.13; in the data set on biotinyl-Trp-oxazolone it was 1.17; with biotinyl-Ile-oxazolone, 0.99; with biotinyl-Val-oxazolone, 0.943.

Consider “CUACUUCAAGCAAUCGGUCAG [Fam1A.1 aminoacylation ribozyme variant]”, for which the self-aminoacylation was determined as 1.09 in the data set on biotinyl-Met-oxazolone; 0.797 in the data set on biotinyl-Leu-oxazolone; 2.28 in the data set with biotinyl-Phe-oxazolone; 1.3 in the data set on biotinyl-Trp-oxazolone; 0.86 in the data set with biotinyl-Ile-oxazolone; 0.894 in the data set on biotinyl-Val-oxazolone.

With “CUACUUCAAGCAAUCGGUCGG [Fam1A.1 aminoacylation ribozyme variant]”, the self-aminoacylation in the data set on biotinyl-Met-oxazolone is 1.08; in the data set with biotinyl-Leu-oxazolone, 1.69; with biotinyl-Phe-oxazolone, 5.87; with biotinyl-Trp-oxazolone, 4.8; with biotinyl-Ile-oxazolone it was 1.53; with biotinyl-Val-oxazolone, 1.25.

Consider “CUACUUCAAGCAAUCGGUUUG [Fam1A.1 aminoacylation ribozyme variant]”, for which the self-aminoacylation in the data set with biotinyl-Met-oxazolone amounted to 0.981; in the data set on biotinyl-Leu-oxazolone, 1.35; in the data set on biotinyl-Phe-oxazolone, 11.5; in the data set on biotinyl-Trp-oxazolone, 8.79; in the data set on biotinyl-Ile-oxazolone, 1.11; in the data set on biotinyl-Val-oxazolone, 1.03.

Consider “CUACUUCAAUUAAUCGGUCUG [Fam1A.1 aminoacylation ribozyme variant]”, for which the self-aminoacylation in the data set on biotinyl-Met-oxazolone was determined as 1.03; with biotinyl-Leu-oxazolone, 1.33; in the data set with biotinyl-Phe-oxazolone, 18.7; in the data set with biotinyl-Trp-oxazolone it was 13.9; in the data set on biotinyl-Ile-oxazolone, 1.08; with biotinyl-Val-oxazolone, 0.985.

In the case of “CUACUUCACACAAUCGGUCUG [Fam1A.1 aminoacylation ribozyme variant]”, the self-aminoacylation turned out to be 0.685 in the data set with biotinyl-Met-oxazolone; 0.694 in the data set on biotinyl-Leu-oxazolone; 0.869 in the data set with biotinyl-Phe-oxazolone; 0.689 with biotinyl-Trp-oxazolone; 0.775 with biotinyl-Ile-oxazolone; 0.811 in the data set on biotinyl-Val-oxazolone.

For the sequence “CUACUUCACACAAUGGGUCUG [Fam1A.1 aminoacylation ribozyme variant]”, the self-aminoacylation is 0.826 in the data set on biotinyl-Met-oxazolone; 0.775 in the data set on biotinyl-Leu-oxazolone; 0.647 with biotinyl-Phe-oxazolone; 0.589 with biotinyl-Trp-oxazolone; 0.865 in the data set on biotinyl-Ile-oxazolone; 0.754 with biotinyl-Val-oxazolone.

“CUACUUCACACAAUUGGUCUG [Fam1A.1 aminoacylation ribozyme variant]”: the self-aminoacylation with biotinyl-Met-oxazolone turned out to be 1; in the data set on biotinyl-Leu-oxazolone, 0.729; with biotinyl-Phe-oxazolone, 0.431; in the data set on biotinyl-Trp-oxazolone, 0.828; in the data set with biotinyl-Ile-oxazolone it was 0.948; in the data set with biotinyl-Val-oxazolone, 0.739.

Take “CUACUUCACACACUCGGUCUG [Fam1A.1 aminoacylation ribozyme variant]”: the self-aminoacylation came out at 1.42 in the data set on biotinyl-Met-oxazolone; 1.69 with biotinyl-Leu-oxazolone; 1.31 in the data set with biotinyl-Phe-oxazolone; 1.16 with biotinyl-Trp-oxazolone; 1.42 in the data set on biotinyl-Ile-oxazolone; 1.49 in the data set with biotinyl-Val-oxazolone.

As for “CUACUUCACACAGUCGGUCUG [Fam1A.1 aminoacylation ribozyme variant]”, the self-aminoacylation was found to be 0.619 in the data set with biotinyl-Met-oxazolone; 0.682 with biotinyl-Leu-oxazolone; 0.389 with biotinyl-Phe-oxazolone; 0.682 in the data set with biotinyl-Trp-oxazolone; 0.65 in the data set on biotinyl-Ile-oxazolone; 0.731 with biotinyl-Val-oxazolone.

In the case of “CUACUUCACACCAUCGGUCUG [Fam1A.1 aminoacylation ribozyme variant]”, the self-aminoacylation stood at 0.943 in the data set on biotinyl-Met-oxazolone; 0.764 in the data set with biotinyl-Leu-oxazolone; 0.625 with biotinyl-Phe-oxazolone; 0.885 in the data set on biotinyl-Trp-oxazolone; 0.82 in the data set on biotinyl-Ile-oxazolone; 0.949 in the data set with biotinyl-Val-oxazolone.

These data come from the supplement of paper PMC9233669.
